Data taken from patent US20020058247A1 (TRIPEP, published 2002).

Key:
[1] = molecular target: serum HBeAg in HBeAg-transgenic mice (hepatitis B virus); assay: cell-based or functional assay
[2] = molecular target: T1, truncated recombinant form of HBeAg containing nine residues of pre-core and the 150 first residues of HBcAg (hepatitis B virus, UniProt P03146 1-150); assay: EIA, HBeAg on solid phase, fusion peptide 20 ug/well, gG2 mAb detection
T1 construct: domain: nine residues of pre-core;range 1-150; also called hepatitis B virus e antigen
T1 sequence (P03146 1-150): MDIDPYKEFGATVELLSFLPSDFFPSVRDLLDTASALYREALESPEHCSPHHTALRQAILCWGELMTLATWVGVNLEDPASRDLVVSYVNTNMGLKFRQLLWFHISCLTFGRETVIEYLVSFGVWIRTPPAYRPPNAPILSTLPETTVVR

Chain of serum HBeAg in HBeAg-transgenic mice (hepatitis B virus) (P0C573 20-183): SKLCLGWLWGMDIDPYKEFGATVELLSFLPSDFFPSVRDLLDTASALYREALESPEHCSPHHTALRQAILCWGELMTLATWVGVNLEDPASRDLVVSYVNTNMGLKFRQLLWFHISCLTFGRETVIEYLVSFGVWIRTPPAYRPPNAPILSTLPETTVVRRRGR

## VKLSCKASGYIFTSHRGGPEE [VKLSCKASGYIFTSHRGGPEE (SEQ. ID. No. 74)]
[1]
  Fold change in serum HBeAg levels by EIA in HBeAg-Tg mice, day 0: 1 fold
  Fold change in serum HBeAg levels by EIA in HBeAg-Tg mice, day 1: 1.5 fold
  Fold change in serum HBeAg levels by EIA in HBeAg-Tg mice, day 3: 2.3 fold
  Fold change in serum HBeAg levels by EIA in HBeAg-Tg mice, day 6: 2.3 fold
  Fold change in serum HBeAg levels by EIA in HBeAg-Tg mice, day 9: 3.3 fold
[2]
  gG2 mAb binding (OD): 1.73 OD
